Data taken from US6696546.

What was measured:
[1] = system: 8-mer PAP CRM-derived peptide (SKIRILVG)
[2] = biological target: bacterial produced, purified his-PAP I (UniProt P25500)
[3] = system: 8-mer peptide of scrambled sequence (LRSGIKVI)

Sequence of bacterial produced, purified his-PAP I (P25500 other isoform, or with tags, fused parts or gaps): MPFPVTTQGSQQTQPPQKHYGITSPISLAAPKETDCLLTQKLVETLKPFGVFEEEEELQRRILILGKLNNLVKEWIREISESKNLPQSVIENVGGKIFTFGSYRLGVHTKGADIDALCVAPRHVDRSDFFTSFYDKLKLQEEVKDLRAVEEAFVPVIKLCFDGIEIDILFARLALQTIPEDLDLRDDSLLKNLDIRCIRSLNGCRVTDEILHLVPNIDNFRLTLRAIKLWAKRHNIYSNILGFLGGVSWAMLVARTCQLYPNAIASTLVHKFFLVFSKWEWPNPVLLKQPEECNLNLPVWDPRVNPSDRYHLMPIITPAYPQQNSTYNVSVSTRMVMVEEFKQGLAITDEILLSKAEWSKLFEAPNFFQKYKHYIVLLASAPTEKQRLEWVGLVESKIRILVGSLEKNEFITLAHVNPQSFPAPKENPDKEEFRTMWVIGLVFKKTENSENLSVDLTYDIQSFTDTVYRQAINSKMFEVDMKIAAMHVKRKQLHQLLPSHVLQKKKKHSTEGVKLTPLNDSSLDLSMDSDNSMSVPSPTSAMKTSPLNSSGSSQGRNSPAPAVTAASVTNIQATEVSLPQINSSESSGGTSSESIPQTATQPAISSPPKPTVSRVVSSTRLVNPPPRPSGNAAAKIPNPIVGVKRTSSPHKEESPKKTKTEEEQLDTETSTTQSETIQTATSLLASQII

Substance	pRB phosphorylation by cyclin A/cdk2 (in vitro kinase assay, 32P, autoradiography; peptide at 9 µM and 18 µM) [1]	32P incorporation into PAP (in vitro kinase assay, autoradiography) [2]	pRB phosphorylation by cyclin A/cdk2 (in vitro kinase assay, 32P; peptide at 9 µM and 18 µM) [3]	pRB phosphorylation by cyclin B1/cdc2 (in vitro kinase assay, 32P; peptide at 18 µM) [1]
human cyclin A/flu-tagged cdk2	PAP's CRM effectively inhibited pRB phosphorylation by cyclin A/cdk2 (lanes 2 and 3)	32P was efficiently incorporated into PAP	a peptide with PAP's CRM scrambled was also tested, and it showed no effect on pRB phosphorylation (lanes 4 and 5)	–
human cyclin B1/flu epitope-tagged p34cdc2	–	–	–	PAP's CRM also strongly and specifically inhibited phosphorylation of pRB by cyclin B1/cdc2
